According to publication PMC12651572 (Cells, 2025):

Legend:
Assay in all cases: ELISA; recombinant human antigen coated at 1 μg/mL on Maxisorp plate overnight; antibodies 2 h at room temperature with shaking; HRP anti-human IgG, TMB, OD 450 nm; EC50 by 4PL fit
Settings in all cases: both partners purified
[1] = target: T1, Recombinant human TSLP (thymic stromal lymphopoietin) (Homo sapiens, UniProt Q969D9)
T1 construct: thymic stromal lymphopoietin, human, recombinant; The reporter and T cell assays used other lots of recombinant human TSLP (R&D Systems for the reporter assay); source: bought: AcroBiosystems

[2] = target: T2, Recombinant human IL-4Rα/IL-13Rα1 receptor complex (Homo sapiens, UniProt P24394;P78552)
T2 construct: interleukin-4 receptor subunit alpha, human, recombinant; interleukin-13 receptor subunit alpha-1, human, recombinant; source: bought: AcroBiosystems

[3] = target: T3, Recombinant human IL-4Rα (IL-4 receptor alpha chain) (Homo sapiens, UniProt P24394)
T3 construct: interleukin-4 receptor subunit alpha, human, recombinant; source: bought: AcroBiosystems

- binding result [1]: no binding
- EC50 [2]: 0.19 nM
- EC50 [3]: ~0.76 nM
B1: IL4R-dupi parental anti-IL-4Rα antibody (dupilumab Fab arms on IgG1 Fc with K409R) (antibody, V domains shown)
VH: EVQLVESGGGLEQPGGSLRLSCAGSGFTFRDYAMTWVRQAPGKGLEWVSSISGSGGNTYYADSVKGRFTISRDNSKNTLYLQMNSLRAEDTAVYYCAKDRLSITIRPRYYGLDVWGQGTTVTVSS
VL: DIVMTQSPLSLPVTPGEPASISCRSSQSLLYSIGYNYLDWYLQKSGQSPQLLIYLGSNRASGVPDRFSGSGSGTDFTLKISRVEAEDVGFYYCMQALQTPYTFGQGTKLEIK
notes: variable region of the dupilumab heavy chain; CH1 and hinge are not described; dupilumab light chain; IgG1; Not the dupilumab analogue with native IgG4 Fc, which was used in the mouse study and the FcRn ELISA; also called IL4R-dupi parental antibody; bivalent IL4R-dupi; source: Expi293F, transiently co-transfected, purified (MabSelect SuRe)
